Measurements reported in US20100047245A1.

Columns and labels:
[1] = molecular target: recombinant purified human IL-12 p70 (human) (UniProt P29459); test: cell-based or functional assay
[2] = molecular target: recombinant purified human IL-12 p70 (human) (UniProt P29459); test: SPR (Biacore 3000), mAb captured via goat anti-mouse IgG Fc, human IL-12 p70 in solution
[3] = molecular target: recombinant purified human IL-12 p70 (human) (UniProt P29459); test: SPR (BIAcore) per Example 1.1.B; antigen not restated, taken as human IL-12 p70
[4] = molecular target: recombinant purified human IL-12 p70 (human) (UniProt P29459); test: SPR (Biacore) per Example 1.1.B; antigen not restated, taken as human IL-12 p70

Sequence of recombinant purified human IL-12 p70 (human) (chain, as listed by the source, form in doubt, chain 1 of 2): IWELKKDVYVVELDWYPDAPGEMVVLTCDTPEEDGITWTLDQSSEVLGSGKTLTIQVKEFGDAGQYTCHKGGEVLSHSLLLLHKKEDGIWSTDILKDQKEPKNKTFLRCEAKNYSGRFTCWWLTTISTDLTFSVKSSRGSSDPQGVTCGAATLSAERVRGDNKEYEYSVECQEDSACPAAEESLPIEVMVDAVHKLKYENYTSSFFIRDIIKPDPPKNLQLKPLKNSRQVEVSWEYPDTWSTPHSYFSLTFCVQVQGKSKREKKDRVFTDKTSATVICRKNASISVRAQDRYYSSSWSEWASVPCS
Sequence of recombinant purified human IL-12 p70 (human) (P29459 23-219, form in doubt, chain 2 of 2): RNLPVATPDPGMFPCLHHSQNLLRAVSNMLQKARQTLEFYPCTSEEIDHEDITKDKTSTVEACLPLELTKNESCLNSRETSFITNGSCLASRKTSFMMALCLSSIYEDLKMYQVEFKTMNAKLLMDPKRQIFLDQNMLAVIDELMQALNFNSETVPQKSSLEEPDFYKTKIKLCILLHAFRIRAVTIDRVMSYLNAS

Average IC50 (nM) Human IL-12; PHA blast IFN-gamma induction assay [1] [nM] | Kd [2] [nM] | koff [2] [s⁻¹] | kon [2] [M⁻¹ s⁻¹] | Av. IC50(nM) huIL-12; PHA blast IFN-gamma induction assay [1] [nM] | Kd [3] [nM] | koff [3] [s⁻¹] | kon [3] [M⁻¹ s⁻¹] | Kd [4] [nM] | koff [4] [s⁻¹] | kon [4] [M⁻¹ s⁻¹] | Binder
0.047 | 0.27 | 0.00028 | 1.1e+06 | – | – | – | – | – | – | – | 7G3 (antibody, V domains shown) VH: EVQLQQSGAEFVRSGASVKLSCTASGLNIKDYYIHWVKQRPEQVLDWIGWIDPENGYSEYAPRFQDKATMTADTSSNTAYLHLSSLTSEDTAVYYCNPGELARYFDYWGQGTTLTVSS VL: DIVLSQSPATLSVTPGDSVSLSCRASQSISKNLHWYQQKSHESPRLLIKYTSQSISGIPSRFSGSGSGTDFTLSINSVETEDFGMYFCQQSISWPLTFGAGTKLELKR
0.031 | 0.12 | 2.9e-05 | 250000 | – | – | – | – | – | – | – | 1D4 (antibody, V domains shown) VH: QVTLKESGPGILQPSQTLSLTCSFSGFSLRKSVMGVSWIRQPSGKGLEWLAHIYWDDDKYYNPSLKSRLTISKDPSRNQVFLKITSVDTADAATYYCTRRGIRSAMDYWGQGTSVTVSS VL: SVVMTQTPKFLLVSAGDRVTITCKASQSVSNDVAWYQQKPGQSPKLLIYYASNRYTGVPDRFTGSGYGTDFTFIISTVRAEDLAVYFCQQDYNSPWTFGGGTKLEIKR
0.69 | 0.25 | 9.9e-05 | 430000 | – | – | – | – | – | – | – | 1H6 (antibody, V domains shown) VH: EVKLVESGGGLVQPGGSRKLSCAASGFTFSDYGMVWVRQAPGKGLEWVAYISSGSSTIHYADTMKGRFTISRDNPKNTLFLQMSSLRSEDTAMYYCARRHYYAMDYWGQGTSVTVSS VL: SFVMTQTPKFLLVSAGDRVTITCKASQSVSNDVAWYQQKPGQSPKLLIYYASNRYTGVPDRFTGTGYGTDFTFTISTVQAEDLAVYFCQQDYTSPFTFGSGTKLEIKR
0.052 | 0.23 | 3.5e-05 | 150000 | – | – | – | – | – | – | – | 1A6 (antibody, V domains shown) VH: QVTLKESGPGILKPSQTLSLTCSFSGFSLSTSGMGVSWIRQPSGKGLEWLAHIWWDGDNYYNPSLKSQLTISKDTSRNQVFLRIATVDTADTATYYCARRTRVNYAMDYWGQGTSVTVSS VL: SVVMTQTPKFLLVSAGDRVTITCKASQSVSNDVAWFQQKPGQSPKLLIYYASNRYTGVPDRFTGSGYGTDFTFTISTVQAEDLAVYFCQQDYNSPWTFGGGTKLEIKR
0.15 | 0.047 | 3.8e-05 | 820000 | – | – | – | – | – | – | – | 3G7 (antibody, V domains shown) VH: QVQLQQSGAELMKPGASVKISCKATGYTFNDYWIEWVKQRPGHGLEWIGGFSHGSGSTNYNEKFKGKATFTADSSSNTAYMQLSSLTSEDSAVYYCARRRFRGMDYWGQGTSVTVSS VL: SIVMTQTPKFLLVSAGDRVTITCKASQSVSNDVAWYQQKPGQSPKLLIYYASNRYTGVPDRFTGSGYGTDFTFTITTVQAEDLAVYFCQQDYSSPWSFGGGTKLEIKR
– | – | – | – | 0.068 | 0.14 | 2.6e-05 | 190000 | – | – | – | 1A6.3 (antibody, human IgG1, V domains shown) VH: EVTLKESGPVLVKPTETLTLTCTVSGFSLSTSGMGVSWIRQPPGKALEWLAHIWWDGDNYYNPSLKSRLTISKDTSKSQVVLTMTNMDPVDTATYYCARRTRVNYAMDYWGQGTTVTVSS VL: SVVMTQTPKFLLVSAGDRVTITCKASQSVSNDVAWFQQKPGQSPKLLIYYASNRYTGVPDRFTGSGYGTDFTFTISTVQAEDLAVYFCQQDYNSPWTFGGGTKLEIKR
– | – | – | – | 0.64 | 0.074 | 2.1e-05 | 280000 | – | – | – | 1D4.4 (antibody, human IgG1, V domains shown) VH: EVTLRESGPALVKPTQTLTLTCTFSGFSLSKSVMGVSWIRQPPGKALEWLAHIYWDDDKYYNPSLKSRLTISKDTSKNQVVLTMTNMDPVDTATYYCARRGIRSAMDYWGQGTTVTVSS VL: SVVMTQTPKFLLVSAGDRVTITCKASQSVSNDVAWYQQKPGQSPKLLIYYASNRYTGVPDRFTGSGYGTDFTFIISTVRAEDLAVYFCQQDYNSPWTFGGGTKLEIKR
0.039 | 0.1 | 1.4e-05 | 130000 | – | – | – | – | – | – | – | 4B4 (antibody, V domains shown) VH: QVTLKESGPGILKPSQTLSLTCSLSGFSLSTSGMGVSWIRQPSGKGLEWLAHIWWDGDSYSNPSLRSRLTISRDTSRNQVFLRIATVDTADTATYYCARRTRVNYAMDYWGQGTSVTVSS VL: SVVMTQTPKFLLVSAGDRVTMTCKASQSVSNDVAWFQQKPGQSPKLLIYYASNRYTGVPDRFTGSGYGTDFTFTISTVQAEDLAVYFCQQDYNSPWTFGGGTKLEIKR
– | – | – | – | 0.053 | 0.11 | 3.1e-05 | 300000 | – | – | – | 1D4.5 (antibody, human IgG1, V domains shown) VH: QVTLKESGPGILQPSQTLSLTCSFSGFSLRKSVMGVSWIRQPSGKGLEWLAHIYWDDDKYYNPSLKSRLTISKDPSRNQVFLKITSVDTADAATYYCTRRGIRSAMDYWGQGTSVTVSS VL: DIVMTQSPDSLAVSLGERATINCKASQSVSNDVAWYQQKPGQPPKLLIYYASNRYTGVPDRFSGSGSGTDFTLTISSLQAEDVAVYYCQQDYNSPWTFGGGTKVEIKR
0.31 | 0.044 | 2.3e-05 | 510000 | – | – | – | – | – | – | – | 1D8 (antibody, V domains shown) VH: QVQLQQSGAELMKPGASVKISCKATGYTFSSYWIEWVKQRPGHGLEWIGDILPGSGSTNYNEKFKDKATFTADTSFNTAYMQLSSLTSEDSAVYYCATRRFRGLDYWGQGTTLTVSS VL: SIVMTQTPKFLLVSAGDRVTITCKASQSVSNDVAWYQQKSGQSPKLLIYYASNRYTGVPDRFTGSGYGTDFTFTISTVQPEDLAVYFCQQDYTSPFTFGSGTKLEIKR
12 | 4 | 0.0023 | 570000 | – | – | – | – | – | – | – | 5E8 (antibody, V domains shown) VH: QIQLVQSGPELKKPGETVKISCKASGYSFTDYSMHWVKQAPGKGLKWMDWINTETGEPTYADDFKGRFAFSLETSASTAYLQINNLKNEDTATYFCSRRRYRAFDYWGQGTTLTVSS VL: SIVMTQSPKFLLVSAGDRVTITCKASQSVSNDVAWYQQKLGQSPKLLIYYASNRYTGVPDRFTGSGYGTDFTFTINTVQAEDLAVYFCQQDYTSPYTFGGGTKLEIQR
– | – | – | – | 0.15 | – | – | – | 0.024 | 7.6e-06 | 320000 | 1A6.10 (antibody, V domains shown) VH: EVTLRESGPGLVKPTQTLTLTCTLYGFSLSTSGMGVSWIRQPPGKGLEWLAHIWWDGDNYYNPSLKSQLTISKDTSKNQVVLKLTSVDPVDTATYYCARRTRVNYAMDYWGQGTLVTVSS VL: DIQMTQSPSSLSASVGDRVTITCKASQSVSNDVAWYQQKPGKAPKLLIYYASNRYTGVPDRFSGSGYGTDFTFTISSLQPEDIATYYCQQDYNSPWTFGGGTKVEIKR
– | – | – | – | 0.088 | – | – | – | 0.4 | 0.0003 | 740000 | 1A6.12 (antibody, IgG1, V domains shown) VH: EVTLRESGPGLVKPTQTLTLTCTLYGFSLSTSGMGVSWIRQPPGKGLEWLAHIWWDGDNYYNPSLKSQLTISKDTSKNQVVLKLTSVDPVDTATYYCARRTRVNYAMDYWGQGTLVTVSS VL: DIQMTQSPSSLSASVGDRVTITCKASQSVSNDVAWFQQKPGKAPKLLIYYASNRYTGVPDRFSGSGYGTDFTFTISSLQPEDIATYYCQQDYNSPWTFGGGTKVEIKR
